Three molecules from publication PMC5773583, “Redundancy of protein disulfide isomerases in the catalysis of the inactivating disulfide switch in A Disintegrin and Metalloprotease 17” (Scientific Reports, 2018) can be followed below.

As usually defined, the Kd is the constant that tells how readily two partners part at equilibrium. A lower Kd goes with higher affinity. As a reminder, the stoichiometry N is the number of molecules, sites or subunits per partner or assembly.

The labels stand for the following.
B3: protein disulfide isomerase PDIA6 (enzyme, human, UniProt Q15084 20-440, looked up)
chain: LYSSSDDVIELTPSNFNREVIQSDSLWLVEFYAPWCGHCQRLTPEWKKAATALKDVVKVGAVDADKHHSLGGQYGVQGFPTIKIFGSNKNRPEDYQGGRTGEAIVDAALSALRQLVKDRLGGRSGGYSSGKQGRSDSSSKKDVIELTDDSFDKNVLDSEDVWMVEFYAPWCGHCKNLEPEWAAAASEVKEQTKGKVKLAAVDATVNQVLASRYGIRGFPTIKIFQKGESPVDYDGGRTRSDIVSRALDLFSDNAPPPELLEIINEDIAKRTCEEHQLCVVAVLPHILDTGAAGRNSYLEVLLKLADKYKKKMWGWLWTEAGAQSELETALGIGGFGYPAMAAINARKMKFALLKGSFSEQGINEFLRELSFGRGSTAPVGGGAFPTIVEREPWDGRDGELPVEDDIDLSDVELDDLGKDEL
notes: mature human PDIA6 (MW 48.8 kDa), cloned into pET28; Dimer in solution by SEC-MALS; also called Erp5; wild-type PDIA6

Bridge positions count the residues as written; N and C are the ends.

For data set [1], the target named is T1, protein disulfide isomerase PDIA3 (human, UniProt P30101 25-505).
T1 construct: mature human PDIA3 (MW 56.6 kDa), cloned into pET28; Monomeric by SEC-MALS; also called Erp57
T1 sequence (looked up): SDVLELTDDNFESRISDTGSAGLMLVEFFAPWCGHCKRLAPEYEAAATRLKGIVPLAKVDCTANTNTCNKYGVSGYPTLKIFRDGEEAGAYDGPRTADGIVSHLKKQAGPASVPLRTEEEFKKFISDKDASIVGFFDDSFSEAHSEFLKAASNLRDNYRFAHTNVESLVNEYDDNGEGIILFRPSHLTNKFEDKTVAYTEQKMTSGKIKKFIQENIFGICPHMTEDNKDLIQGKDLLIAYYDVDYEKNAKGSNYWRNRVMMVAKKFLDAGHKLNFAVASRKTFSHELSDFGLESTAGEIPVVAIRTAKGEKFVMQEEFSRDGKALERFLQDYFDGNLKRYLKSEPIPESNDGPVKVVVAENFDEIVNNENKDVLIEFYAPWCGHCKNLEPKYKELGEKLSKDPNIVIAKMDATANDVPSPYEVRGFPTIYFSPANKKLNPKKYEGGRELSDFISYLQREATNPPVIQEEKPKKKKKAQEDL
Nature of the data set: MST; RED-NHS-labelled MPD constant at 20 nM, unlabelled PDI titrated (7.5 uM to 0.9537 nM, 1:2 series, 16 dilutions); PBS-P (PBS, 0.01% P20, pH 7.4), 25 °C; KD from the ligand-induced change of the initial fluorescence intensity. To be noted: both partners purified.

For a further data set, the target named is T2, PDIA6 C193S TRAP mutant (human, UniProt Q15084 20-440, C193S).
T2 construct: mature human PDIA6 with C193S (second cysteine of the CGHC motif of the a' domain), in pET28
T2 sequence (looked up): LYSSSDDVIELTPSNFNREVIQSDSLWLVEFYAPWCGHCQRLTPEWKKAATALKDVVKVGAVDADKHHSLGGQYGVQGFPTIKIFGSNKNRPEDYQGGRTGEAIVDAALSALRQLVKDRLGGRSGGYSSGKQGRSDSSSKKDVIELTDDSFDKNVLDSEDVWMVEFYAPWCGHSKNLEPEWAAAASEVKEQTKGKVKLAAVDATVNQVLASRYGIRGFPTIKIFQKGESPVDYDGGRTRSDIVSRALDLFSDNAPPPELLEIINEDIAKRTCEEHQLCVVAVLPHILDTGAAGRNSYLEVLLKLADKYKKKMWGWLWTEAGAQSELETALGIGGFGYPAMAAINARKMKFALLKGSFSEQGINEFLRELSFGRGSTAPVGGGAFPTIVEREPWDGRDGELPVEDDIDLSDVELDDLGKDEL
The data set is described as above. The following applies: both partners purified.

For another data set, the target named is T3, PDIA6 C58S TRAP mutant (human, UniProt Q15084 20-440, C58S).
T3 construct: mature human PDIA6 with C58S (second cysteine of the CGHC motif of the a domain), in pET28
T3 sequence (looked up): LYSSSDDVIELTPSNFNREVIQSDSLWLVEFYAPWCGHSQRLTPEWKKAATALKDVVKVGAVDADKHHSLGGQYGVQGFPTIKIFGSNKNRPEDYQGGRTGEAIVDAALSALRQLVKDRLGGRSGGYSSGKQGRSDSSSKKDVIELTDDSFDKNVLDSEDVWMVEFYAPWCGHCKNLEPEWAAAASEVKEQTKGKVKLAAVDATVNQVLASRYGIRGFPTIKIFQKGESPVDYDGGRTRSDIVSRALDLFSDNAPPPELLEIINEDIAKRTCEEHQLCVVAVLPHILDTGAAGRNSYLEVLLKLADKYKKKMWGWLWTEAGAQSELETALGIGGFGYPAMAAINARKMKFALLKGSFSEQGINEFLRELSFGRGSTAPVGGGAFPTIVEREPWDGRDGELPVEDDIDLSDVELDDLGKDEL
Described as above. To be noted: both partners purified.

For data set [2], the target named is B3. The description is as above. The following applies: both partners purified.
In another data set the target is T4, PDIA6 C55S C58S mutant (human, UniProt Q15084 20-440, C55S | C58S).
T4 construct: mature human PDIA6 with both cysteines of the a domain exchanged (C55S, C58S), in pET28
T4 sequence (looked up): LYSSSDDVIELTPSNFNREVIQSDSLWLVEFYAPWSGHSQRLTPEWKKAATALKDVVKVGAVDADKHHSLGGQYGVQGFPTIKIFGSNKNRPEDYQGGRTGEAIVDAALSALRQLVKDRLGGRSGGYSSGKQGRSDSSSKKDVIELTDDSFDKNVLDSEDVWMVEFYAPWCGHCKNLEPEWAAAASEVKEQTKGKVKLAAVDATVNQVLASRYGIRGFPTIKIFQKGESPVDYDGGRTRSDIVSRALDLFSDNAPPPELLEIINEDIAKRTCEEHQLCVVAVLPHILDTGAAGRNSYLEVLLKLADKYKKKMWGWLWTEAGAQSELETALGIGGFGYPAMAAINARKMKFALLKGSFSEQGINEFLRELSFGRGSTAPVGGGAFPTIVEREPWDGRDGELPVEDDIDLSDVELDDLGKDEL
Described as above. The following applies: both partners purified.

Data set [3] deals with T5, protein disulfide isomerase PDIA1 (human, UniProt P07237 18-508).
T5 construct: mature human PDIA1 (MW 57.6 kDa), cloned into pET28; Monomeric by SEC-MALS
T5 sequence (P07237 18-508): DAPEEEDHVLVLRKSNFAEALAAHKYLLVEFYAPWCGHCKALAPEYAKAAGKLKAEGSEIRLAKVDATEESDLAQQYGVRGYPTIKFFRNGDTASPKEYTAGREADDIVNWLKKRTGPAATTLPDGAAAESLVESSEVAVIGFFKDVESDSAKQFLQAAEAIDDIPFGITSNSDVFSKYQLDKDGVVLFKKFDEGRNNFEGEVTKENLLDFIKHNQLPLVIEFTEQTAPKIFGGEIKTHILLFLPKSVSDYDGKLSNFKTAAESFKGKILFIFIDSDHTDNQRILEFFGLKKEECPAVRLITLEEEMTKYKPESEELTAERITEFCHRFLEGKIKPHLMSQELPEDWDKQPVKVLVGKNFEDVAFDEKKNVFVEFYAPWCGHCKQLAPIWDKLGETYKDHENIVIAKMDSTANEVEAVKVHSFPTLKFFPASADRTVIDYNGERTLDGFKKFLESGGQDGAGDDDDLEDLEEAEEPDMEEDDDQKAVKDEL
The description is as above. To be noted: both partners purified.

Data set [4] addresses T6, PDIA6 inverse TRAP mutant C55S C190S (human, UniProt Q15084 20-440, C55S | C190S).
T6 construct: mature human PDIA6 with the N-terminal cysteines of both CGHC motifs exchanged (C55S, C190S), in pET28; also called PDIA6 C55S C190S
T6 sequence (looked up): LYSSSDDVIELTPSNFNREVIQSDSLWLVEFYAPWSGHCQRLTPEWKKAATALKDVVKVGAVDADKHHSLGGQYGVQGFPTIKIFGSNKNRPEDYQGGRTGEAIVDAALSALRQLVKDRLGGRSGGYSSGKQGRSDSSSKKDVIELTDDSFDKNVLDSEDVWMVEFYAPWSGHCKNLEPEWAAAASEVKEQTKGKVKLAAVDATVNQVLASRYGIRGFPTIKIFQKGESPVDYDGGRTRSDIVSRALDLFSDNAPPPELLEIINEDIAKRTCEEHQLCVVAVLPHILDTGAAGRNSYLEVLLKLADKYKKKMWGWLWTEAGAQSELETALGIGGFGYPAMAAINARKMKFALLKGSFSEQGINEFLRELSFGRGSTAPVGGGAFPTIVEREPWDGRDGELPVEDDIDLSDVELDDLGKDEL
Described as above. To be noted: both partners purified.

In data set [5] the target is T7, PDIA6 double TRAP mutant (2 TRAP) C58S C193S (human, UniProt Q15084 20-440, C58S | C193S).
T7 construct: mature human PDIA6 with C58S and C193S, in pET28; also called PDIA6 C58S C193S; PDIA6_2 TRAP
T7 sequence (looked up): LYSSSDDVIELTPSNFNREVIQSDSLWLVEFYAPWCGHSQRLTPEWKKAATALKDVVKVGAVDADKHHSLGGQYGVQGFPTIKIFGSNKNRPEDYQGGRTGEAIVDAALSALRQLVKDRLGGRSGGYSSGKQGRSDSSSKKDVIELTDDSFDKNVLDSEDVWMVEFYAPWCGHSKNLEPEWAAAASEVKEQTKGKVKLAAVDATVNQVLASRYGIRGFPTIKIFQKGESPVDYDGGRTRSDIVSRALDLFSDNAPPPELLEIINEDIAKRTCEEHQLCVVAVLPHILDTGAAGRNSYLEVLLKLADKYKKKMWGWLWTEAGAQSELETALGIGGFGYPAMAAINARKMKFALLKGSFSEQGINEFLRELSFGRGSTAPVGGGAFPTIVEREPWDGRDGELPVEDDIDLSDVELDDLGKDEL
The data set is described as above. To be noted: both partners purified.

Data set [6] concerns the molecule itself. Put plainly: SEC-MALS; Superdex 200 10/300 GL, 0.5 ml/minute, PBS pH 7.4; 100–500 µg protein per analysis. For orientation: SEC sorts molecules by how far they enter the pores of the column.

B1: open membrane-proximal domain (opMPD) of A Disintegrin and Metalloprotease 17 (ADAM17) (domain or fragment, UniProt P78536 581-642, looked up)
chain: FCEREQQLESCACNETDNSCKVCCRDLSGRCVPYVDAEQKNLFLRKGKPCTVGFCDMNGKCE
modifications: disulfide 20-50, 55-61; also: labelled on amines with RED-NHS dye
notes: membrane-proximal domain of ADAM17, open isomer, recombinant, 9.9 kDa; also called open conformation of the MPD
Consider B1, for which the Kd in [1] amounted to 90 nM; with PDIA6 C193S TRAP mutant, 142 nM; with PDIA6 C58S TRAP mutant, 141 nM; in data set [2], 93 nM; with PDIA6 C55S C58S mutant it was 138 nM; in [3] it was 158 nM. Further, the Kd in data set [4] worked out at 115 nM; in data set [5], 192 nM.

B2: closed membrane-proximal domain (clMPD) of A Disintegrin and Metalloprotease 17 (ADAM17) (domain or fragment, UniProt P78536 581-642, looked up)
chain: FCEREQQLESCACNETDNSCKVCCRDLSGRCVPYVDAEQKNLFLRKGKPCTVGFCDMNGKCE
modifications: disulfide 20-55, 50-61; also: labelled on amines with RED-NHS dye
notes: membrane-proximal domain of ADAM17, closed disulfide isomer; it is the disulfide isomer of m9 and probably carries the same tag; also called closed MPD; closed isoform
Take B2: the Kd in data set [1] was determined as 55 nM; with PDIA6 C193S TRAP mutant, 91 nM; with PDIA6 C58S TRAP mutant, 113 nM; in data set [2], 61 nM; with PDIA6 C55S C58S mutant, 191 nM; in data set [3] it was 211 nM. In addition, the Kd in [4] turned out to be 116 nM; in data set [5] it was 151 nM.
As to B3, in [6], the “stoichiometry N” value came to 2.
